One block for each substance: values may come before it.
Key:
[1] = biological target: HSL3 ectodomain Gln120Ala (Arabidopsis thaliana); test: ITC
[2] = biological target: HAESA-LIKE 3 (HSL3) ectodomain, wild type (Arabidopsis thaliana); test: ITC

Substance: CTNIP4(46-70)_(Cys-Cys) (peptide)
fold reduction in binding affinity against wild-type HSL3 [1]: 60 fold

Substance: CTNIP4(48-70)_(Cys-Cys) (peptide)
fold loss of affinity against CTNIP4(46-70) (Cys-Cys) [2]: 200 fold

Substance: CTNIP4^C58A(46-63) (peptide)
fold reduction in binding affinity against CTNIP4(46-70) (Cys-Cys) [2]: 200 fold

Substance: CTNIP4^C58A.C68A(46-70) (peptide)
fold impairment of binding against CTNIP4(46-70) (Cys-Cys) [2]: 200 fold

Now from value to substance:

fold reduction in binding against CTNIP4(46-70) (Cys-Cys) [2]: 4 fold
Substance: CTNIP4(47-70)_(Cys-Cys) (peptide)

fold reduction in binding affinity against CTNIP4(46-70) (Cys-Cys) [2]: 120 fold
Substance: CTNIP4^I61Y (peptide)

Source: publication doi:10.1101/2025.10.24.684422
